What was measured:
[1] = target: wild-type proliferating cell nuclear antigen (PCNA) (yeast) (UniProt P15873)
[2] = target: wild-type proliferating cell nuclear antigen (PCNA) (yeast) (UniProt P15873); remark: listed apart in the source
[3] = target: pcna-6 (DD41,42AA) mutant PCNA (yeast) (UniProt P15873)
[4] = target: wild-type proliferating cell nuclear antigen (PCNA) (yeast) (UniProt P15873); remark: listed apart in the source
[5] = target: pcna-6 (DD41,42AA) mutant PCNA (yeast) (UniProt P15873); remark: listed apart in the source
[6] = target: wild-type proliferating cell nuclear antigen (PCNA) (yeast) (UniProt P15873); remark: listed apart in the source

Sequence of wild-type proliferating cell nuclear antigen (PCNA) (yeast) (P15873 whole entry): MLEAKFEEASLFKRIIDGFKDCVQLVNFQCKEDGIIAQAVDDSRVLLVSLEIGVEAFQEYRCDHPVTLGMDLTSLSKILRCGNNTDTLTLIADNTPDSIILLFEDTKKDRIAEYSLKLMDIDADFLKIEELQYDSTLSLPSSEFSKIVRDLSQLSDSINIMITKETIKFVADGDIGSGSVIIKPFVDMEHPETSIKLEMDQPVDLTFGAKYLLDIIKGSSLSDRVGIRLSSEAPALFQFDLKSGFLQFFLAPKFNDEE
Sequence of pcna-6 (DD41,42AA) mutant PCNA (yeast) (P15873 other isoform, or with tags, fused parts or gaps mutant): as the sequence (P15873 whole entry) above, with D41A, D42A counted along it

Substance | nucleotide incorporation rate (rate of primer disappearance, single exponential fit), quench flow, 75/29 template/primer, 300 nM mini-Pol δ-DV, 150 nM PCNA, 75 nM RFC, AMP-CPP, 100 mM NaCl, 30°C [1] [s⁻¹] | replication of the T20 template by the fastest moving complexes, quench flow, 100 mM NaCl (nucleotides per second) [2] | peak of the normalized product distribution (nucleotides incorporated) at 10 and 50 ms, single processive cycle with heparin trap [3] [nucleotides] | peak of the normalized product distribution (nucleotides incorporated) at 10 and 50 ms, single processive cycle with heparin trap [4] [nucleotides] | single-nucleotide extension rate (k fast), quench flow, 76/29 template/primer, 12°C [5] [s⁻¹] | single-nucleotide extension rate (k fast), quench flow, 76/29 template/primer, 12°C [6] [s⁻¹]
mini-Pol δ-DV (variant DNA polymerase δ heterotrimer, exonuclease-deficient D520V) (from UniProt P15436 82-1097; P46957 1-487; P47110 1-350) (complex) | > 350 | 500 | 7 | 16 |  | 
DNA polymerase δ (Pol δ-DV), full-length exonuclease-deficient (D520V) heterotrimer (from UniProt P15436 1-1097; P46957 1-487; P47110 1-350) (complex) |  |  |  |  | 55 | 183
